Experimental data reported in PMC10397247.
Each block holds one binder with its values, some of them ahead of it.

Legend:
[1] = target: T1, P8A-bN; experiment: two-hybrid library CCNG1;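 note: natural log of median RNA to DNA barcode read ratio; higher means stronger binding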
T1 chain: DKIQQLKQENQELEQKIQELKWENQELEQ

[2] = target: T2, P9A-bN; experiment: two-hybrid library CCNG1;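 note: natural log of median RNA to DNA barcode read ratio; higher means stronger binding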
T2 chain: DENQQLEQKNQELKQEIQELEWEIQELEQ

[3] = target: T3, 4H3905-AA; experiment: two-hybrid library CCmax; conditions: mean of both orientations;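 note: natural log of median RNA to DNA barcode read ratio; higher means stronger binding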
T3 chain: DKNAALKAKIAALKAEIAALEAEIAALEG

[4] = target: T4, 4H3625-AA; experiment: two-hybrid library CCmax; conditions: mean of both orientations;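 note: natural log of median RNA to DNA barcode read ratio; higher means stronger binding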
T4 chain: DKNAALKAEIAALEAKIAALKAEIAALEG

[5] = target: T5, 4H4038-AA; experiment: two-hybrid library CCmax; conditions: mean of both orientations;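 note: natural log of median RNA to DNA barcode read ratio; higher means stronger binding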
T5 chain: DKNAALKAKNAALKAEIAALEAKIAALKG

[6] = target: T6, 4H3049-AA; experiment: two-hybrid library CCmax; conditions: mean of both orientations;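 note: natural log of median RNA to DNA barcode read ratio; higher means stronger binding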
T6 chain: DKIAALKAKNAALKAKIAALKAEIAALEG

[7] = target: T7, 4H337-AA; experiment: two-hybrid library CCmax; conditions: mean of both orientations
T7 chain: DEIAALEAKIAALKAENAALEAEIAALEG

[8] = target: T8, O13-AA; experiment: two-hybrid library CCmax; conditions: mean of both orientations
T8 chain: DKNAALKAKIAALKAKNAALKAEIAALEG

[9] = target: T9, O11-AA; experiment: two-hybrid library CCmax; conditions: mean of both orientations
T9 chain: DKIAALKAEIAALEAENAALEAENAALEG

[10] = target: T10, 4H_BCR; experiment: two-hybrid library CCmax; conditions: mean of both orientations
T10 chain: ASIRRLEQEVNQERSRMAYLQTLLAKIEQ

[11] = target: T11, 4H3590-AA; experiment: two-hybrid library CCmax; conditions: mean of both orientations
T11 chain: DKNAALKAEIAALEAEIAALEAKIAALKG

[12] = target: T12, 4H3587-AA; experiment: two-hybrid library CCmax; conditions: mean of both orientations
T12 chain: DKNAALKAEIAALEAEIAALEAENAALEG

[13] = target: 4H_GCN4; experiment: two-hybrid library CCmax
4H_GCN4, sequence (chain, as listed by the source): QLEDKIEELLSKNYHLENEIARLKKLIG

[14] = target: T13, 4H2888-AA; experiment: two-hybrid library CCmax
T13 chain: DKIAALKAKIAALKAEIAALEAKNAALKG

[15] = target: T14, 4H451-AA; experiment: two-hybrid library CCmax; conditions: mean of both orientations
T14 chain: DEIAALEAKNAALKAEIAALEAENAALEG

[16] = target: T15, O14-AA; experiment: two-hybrid library CCmax; conditions: mean of both orientations
T15 chain: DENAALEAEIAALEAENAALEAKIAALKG

[17] = target: T16, 4H_APH; experiment: two-hybrid library CCmax; conditions: mean of both orientations
T16 chain: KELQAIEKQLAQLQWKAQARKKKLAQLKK

[18] = target: T17, 4H43-AA; experiment: two-hybrid library CCmax; conditions: mean of both orientations
T17 chain: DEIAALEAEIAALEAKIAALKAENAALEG

[19] = target: T18, 4H510-AA; experiment: two-hybrid library CCmax; conditions: mean of both orientations
T18 chain: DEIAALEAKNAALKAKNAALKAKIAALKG

[20] = target: GCN2_T; experiment: two-hybrid library CCmax; conditions: mean of both orientations
[21] = target: T19, 4H384-AA; experiment: two-hybrid library CCmax; conditions: mean of both orientations
T19 chain: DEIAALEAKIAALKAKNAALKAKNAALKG

[22] = target: T20, 4H481-AA; experiment: two-hybrid library CCmax; conditions: mean of both orientations
T20 chain: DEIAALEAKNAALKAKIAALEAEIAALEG

[23] = target: T21, 4H4033-AA; experiment: two-hybrid library CCmax; conditions: mean of both orientations
T21 chain: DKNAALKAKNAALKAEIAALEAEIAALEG

[24] = target: T22, 4H2935-AA; experiment: two-hybrid library CCmax; conditions: mean of both orientations
T22 chain: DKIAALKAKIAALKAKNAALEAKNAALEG

[25] = target: T23, 4H3664-AA; experiment: two-hybrid library CCmax; conditions: mean of both orientations
T23 chain: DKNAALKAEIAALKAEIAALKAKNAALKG

[26] = target: T24, 4H3605-AA; experiment: two-hybrid library CCmax; conditions: mean of both orientations
T24 chain: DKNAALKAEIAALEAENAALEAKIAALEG

[27] = target: T25, 4H3922-AA; experiment: two-hybrid library CCmax; conditions: mean of both orientations
T25 chain: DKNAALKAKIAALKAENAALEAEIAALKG

[28] = target: T26, O3-AA; experiment: two-hybrid library CCmax
T26 chain: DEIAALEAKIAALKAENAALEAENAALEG

[29] = target: T27, 4H369-AA; experiment: two-hybrid library CCmax
T27 chain: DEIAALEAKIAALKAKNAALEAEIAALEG

[30] = target: T28, 4H2608-AA; experiment: two-hybrid library CCmax; conditions: mean of both orientations
T28 chain: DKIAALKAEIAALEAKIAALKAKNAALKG

[31] = target: T29, 4H2536-AA; experiment: two-hybrid library CCmax
T29 chain: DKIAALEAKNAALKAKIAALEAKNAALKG

[32] = target: T30, 4H327-AA; experiment: two-hybrid library CCmax; conditions: mean of both orientations
T30 chain: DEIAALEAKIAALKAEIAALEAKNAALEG

[33] = target: T31, 4H2614-AA; experiment: two-hybrid library CCmax; conditions: mean of both orientations
T31 chain: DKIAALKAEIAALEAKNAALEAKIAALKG

[34] = target: T32, 4H55-AA; experiment: two-hybrid library CCmax; conditions: mean of both orientations
T32 chain: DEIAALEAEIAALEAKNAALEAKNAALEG

[35] = target: T33, 4H662-AA; experiment: two-hybrid library CCmax; conditions: mean of both orientations
T33 chain: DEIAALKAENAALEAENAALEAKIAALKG

[36] = target: T34, 4H2726-AA; experiment: two-hybrid library CCmax; conditions: mean of both orientations
T34 chain: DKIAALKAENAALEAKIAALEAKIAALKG

[37] = target: T35, 4H797-bA; experiment: two-hybrid library CCNG1
T35 chain: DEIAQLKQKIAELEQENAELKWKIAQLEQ

[38] = target: T36, 4H4073-bA; experiment: two-hybrid library CCNG1
T36 chain: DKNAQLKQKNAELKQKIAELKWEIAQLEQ

[39] = target: T37, 4H968-bA; experiment: two-hybrid library CCNG1
T37 chain: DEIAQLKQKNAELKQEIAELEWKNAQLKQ

[40] = target: T38, 4H953-bA; experiment: two-hybrid library CCNG1
T38 chain: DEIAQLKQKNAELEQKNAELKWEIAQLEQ

[41] = target: T39, 4H780-bA; experiment: two-hybrid library CCNG1
T39 chain: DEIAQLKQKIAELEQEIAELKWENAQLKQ

[42] = target: T40, 4H918-bA; experiment: two-hybrid library CCNG1
T40 chain: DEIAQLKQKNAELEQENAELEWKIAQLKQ

[43] = target: T41, 4H3112-bA; experiment: two-hybrid library CCNG1
T41 chain: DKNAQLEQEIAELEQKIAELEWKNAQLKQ

[44] = target: T42, 4H855-bA; experiment: two-hybrid library CCNG1
T42 chain: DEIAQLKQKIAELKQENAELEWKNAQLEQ

[45] = target: T43, 4H3010-bA; experiment: two-hybrid library CCNG1
T43 chain: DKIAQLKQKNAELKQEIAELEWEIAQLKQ

[46] = target: T44, 4H3926-bA; experiment: two-hybrid library CCNG1
T44 chain: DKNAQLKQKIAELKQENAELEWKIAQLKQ

[47] = target: T45, 4H3427-bA; experiment: two-hybrid library CCNG1
T45 chain: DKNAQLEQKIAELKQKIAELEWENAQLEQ

[48] = target: T46, 4H346-bA; experiment: two-hybrid library CCNG1
T46 chain: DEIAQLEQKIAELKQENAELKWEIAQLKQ

[49] = target: T47, 4H683-bA; experiment: two-hybrid library CCNG1
T47 chain: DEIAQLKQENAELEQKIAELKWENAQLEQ

[50] = target: T48, 4H575-bA; experiment: two-hybrid library CCNG1
T48 chain: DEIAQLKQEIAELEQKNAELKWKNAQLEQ

[51] = target: T49, 4H754-bA; experiment: two-hybrid library CCNG1
T49 chain: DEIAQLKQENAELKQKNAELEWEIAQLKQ

[52] = target: T50, 4H2702-bA; experiment: two-hybrid library CCNG1
T50 chain: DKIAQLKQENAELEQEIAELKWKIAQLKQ

[53] = target: T51, 4H2673-bA; experiment: two-hybrid library CCNG1
T51 chain: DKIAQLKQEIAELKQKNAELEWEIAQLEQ

[54] = target: T52, 4H457-bA; experiment: two-hybrid library CCNG1
T52 chain: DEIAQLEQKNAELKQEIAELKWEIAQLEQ

[55] = target: T53, P8A-bS; experiment: two-hybrid library CCNG1
T53 chain: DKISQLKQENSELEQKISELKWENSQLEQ

[56] = target: T54, P9A-bS; experiment: two-hybrid library CCNG1
T54 chain: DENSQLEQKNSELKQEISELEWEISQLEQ

[57] = target: T55, P7A-bS; experiment: two-hybrid library CCNG1
T55 chain: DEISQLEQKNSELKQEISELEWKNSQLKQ

[58] = target: T56, P9mS; experiment: two-hybrid library CCNG1
T56 chain: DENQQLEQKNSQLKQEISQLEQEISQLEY

[59] = target: T57, P9-AA; experiment: two-hybrid library CCmax; conditions: mean of both orientations
T57 chain: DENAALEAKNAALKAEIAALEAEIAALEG

[60] = target: T58, P10-AA; experiment: two-hybrid library CCmax; conditions: mean of both orientations
T58 chain: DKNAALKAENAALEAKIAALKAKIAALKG

[61] = target: T59, O6-AA; experiment: two-hybrid library CCmax; conditions: mean of both orientations
T59 chain: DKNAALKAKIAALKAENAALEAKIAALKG

[62] = target: T60, O4-AA; experiment: two-hybrid library CCmax; conditions: mean of both orientations
T60 chain: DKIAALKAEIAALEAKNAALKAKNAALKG

[63] = target: T61, O5-AA; experiment: two-hybrid library CCmax; conditions: mean of both orientations
T61 chain: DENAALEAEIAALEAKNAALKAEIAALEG

[64] = target: T62, O8-AA; experiment: two-hybrid library CCmax; conditions: mean of both orientations
T62 chain: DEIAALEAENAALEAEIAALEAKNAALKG

[65] = target: T63, O7-AA; experiment: two-hybrid library CCmax; conditions: mean of both orientations
T63 chain: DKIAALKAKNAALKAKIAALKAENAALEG

interaction score [1]: -1.84
interaction score [2]: -1.47
B1: P8A-bN (peptide)
chain: DKIQQLKQENQELEQKIQELKWENQELEQ

interaction score [3]: 1.91
interaction score [4]: 1.63
interaction score [5]: 0.103
interaction score [6]: -0.982
interaction score [7]: 1.21
interaction score [8]: -0.966
interaction score [9]: 0.766
interaction score [10]: -2.06
interaction score [11]: 2.23
interaction score [12]: 1.25
interaction score [13]: -1.53
interaction score [14]: 1.12
interaction score [15]: -0.857
interaction score [16]: 1.71
interaction score [17]: -2.17
interaction score [18]: 1.89
interaction score [19]: -1.56
interaction score [20]: -1.24
interaction score [21]: -0.941
B2: 4H2888-AA (peptide)
chain: DKIAALKAKIAALKAEIAALEAKNAALKG

interaction score [22]: -0.0556
interaction score [23]: -1.47
interaction score [24]: -1.66
interaction score [4]: -1.16
interaction score [25]: -1.51
interaction score [26]: 1.29
interaction score [27]: 0.635
interaction score [28]: -1.65
interaction score [29]: 0.0403
interaction score [30]: -0.457
interaction score [31]: -0.663
interaction score [32]: -1.02
interaction score [33]: -1.61
interaction score [34]: -1.17
interaction score [35]: -1.33
interaction score [36]: 1.39
B3: 4H2536-AA (peptide)
chain: DKIAALEAKNAALKAKIAALEAKNAALKG

interaction score [37]: -2.16
interaction score [38]: 0.202
interaction score [39]: -0.811
interaction score [40]: -0.927
interaction score [41]: -1.03
interaction score [42]: -0.235
interaction score [43]: -0.873
interaction score [44]: 0.000366
interaction score [45]: 2
interaction score [46]: 1.58
interaction score [47]: -1.17
interaction score [48]: -0.931
interaction score [49]: -0.575
interaction score [50]: 0.276
interaction score [51]: -0.889
interaction score [52]: -1.01
interaction score [53]: 0.275
interaction score [54]: -1.45
B4: 4H2673-bA (peptide)
chain: DKIAQLKQEIAELKQKNAELEWEIAQLEQ

interaction score [55]: 0.493
interaction score [56]: -0.768
interaction score [57]: -1.32
B5: P7A-bS (peptide)
chain: DEISQLEQKNSELKQEISELEWKNSQLKQ

interaction score [58]: -1.32
B6: P9mS (peptide)
chain: DENQQLEQKNSQLKQEISQLEQEISQLEY

interaction score [59]: -0.88
interaction score [28]: -0.811
interaction score [60]: -1.06
interaction score [61]: -0.902
interaction score [62]: 1.99
interaction score [63]: -1.22
interaction score [64]: -1.37
interaction score [65]: -1.4
B7: O3-AA (peptide)
chain: DEIAALEAKIAALKAENAALEAENAALEG
